Source: paper PMC6347451

Molecular target: native MICU1 (in the native, disulfide-connected MICU1-2 heterodimer) (human (endogenous in HEK 293)) (UniProt Q9BPX6)
Sequence of UniProt Q9BPX6 (Q9BPX6 34-476, one chain of several): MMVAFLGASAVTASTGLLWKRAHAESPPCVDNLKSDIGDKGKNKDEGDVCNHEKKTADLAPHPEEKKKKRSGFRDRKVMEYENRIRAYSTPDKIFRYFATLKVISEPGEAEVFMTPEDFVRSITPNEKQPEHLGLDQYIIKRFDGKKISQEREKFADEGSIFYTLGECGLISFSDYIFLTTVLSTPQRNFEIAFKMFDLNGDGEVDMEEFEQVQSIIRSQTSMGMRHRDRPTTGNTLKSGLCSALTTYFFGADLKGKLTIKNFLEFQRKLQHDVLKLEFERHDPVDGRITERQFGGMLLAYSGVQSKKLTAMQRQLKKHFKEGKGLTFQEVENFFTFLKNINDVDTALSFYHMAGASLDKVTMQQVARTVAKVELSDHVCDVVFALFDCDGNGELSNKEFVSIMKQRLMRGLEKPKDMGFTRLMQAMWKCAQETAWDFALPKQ

## 1D4-tagged human MCU D261A (from UniProt Q8NE86 51-351) (natural protein)
  rate of mitochondrial ^45Ca^2+ uptake in low Ca^2+ (0.5 μM), D261A MCU expressed in MCU-KO cells (gating by MICU1 lost) (pmol/min/10^6 cells): 34
